Data: patent US20200292534A1 (published 2020)
Like-named read-outs stand apart in the source and are kept apart here.

Experiments:
Test in all cases: luminescence complementation titration, one-site specific binding
NLpoly11S [1] = molecular target: T1, NLpoly11S
T1 chain: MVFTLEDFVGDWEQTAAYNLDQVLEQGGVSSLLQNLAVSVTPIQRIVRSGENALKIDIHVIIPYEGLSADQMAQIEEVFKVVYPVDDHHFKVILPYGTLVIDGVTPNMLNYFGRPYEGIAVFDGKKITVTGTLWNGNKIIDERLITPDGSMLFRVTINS

NLpoly11S [2] = molecular target: T1, NLpoly11S
NLpoly11S [3] = molecular target: T1, NLpoly11S

B1: HaloTag-NLPep78 (other)
chain: NVSGWRLFKKISN
NLpoly11S [1]
  Kd: 7.21 nM

B2: HaloTag-NLPep79 (other)
chain: NVTGYRLFKKISN
NLpoly11S [2]
  Kd: 33.9 nM

B3: NLpep79-HaloTag (other)
chain: MNVTGYRLFKKISN
NLpoly11S [2]
  Kd: 22.9 nM

B4: NLpep78-HaloTag (other)
chain: MNVSGWRLFKKISN
NLpoly11S [1]
  Kd: 30.2 nM

B5: NLpep1 (peptide)
peptide: GVTGWRLCERILA
NLpoly11S [3]
  Kd: 2460 nM

B6: NLpep114 (peptide)
peptide: VTGYRLFEEIL
NLpoly11S [3]
  Kd: 199000 nM
